{"source": "patent US6610541B2", "about": "“Recombinant, active caspases and uses thereof” (Thomas Jefferson University, priority 1998, dated 2003)", "molecules": {"B1": {"name": "rev-caspase-3: contiguous caspase-3 with small subunit fused N-terminal to large subunit, DEVDG cleavage site between them (SEQ ID NO:34) (protein)", "chain": "MIETDSGVDDDMACHKIPVEADFLYAYSTAPGYYSWRNSKDGSWFIQSLCAMLKQYADKLEFMHILTRVNRKVATEFESFSFDATFHAKKQIPCIVSMLTKELYFYHDEVDGGSPMENTENSVDSKSIKNLEPKIIHGSESMDSGISLDNSYKMDYPEMGLCIIINNKNFHKSTGMTSRSGTDVDAANLRETFRNLKYEVRNKNDLTREEIVELMRDVSKEDHSKRSSFVCVLLSHGEEGIIFGTNGPVDLKKITNFFRGDRCRSLTGKPKLFIIQACRGTELDCGIETD", "modifications": "OTHER INFORMATION: Rev-Caspase-3 contructed fro m human caspase -3"}, "B2": {"name": "wild-type caspase-3: wild-type human caspase-3 (SEQ ID NO:12) (protein)", "chain": "MENTENSVDSKSIKNLEPKIIHGSESMDSGISLDNSYKMDYPEMGLCIIINNKNFHKSTGMTSRSGTDVDAANLRETFRNLKYEVRNKNDLTREEIVELMRDVSKEDHSKRSSFVCVLLSHGEEGIIFGTNGPVDLKKITNFFRGDRCRSLTGKPKLFIIQACRGTELDCGIETDSGVDDDMACHKIPVDADFLYAYSTAPGYYSWRNSKDGSWFIQSLCAMLKQYADKLEFMHILTRVNRKVATEFESFSFDATFHAKKQIPCIVSMLTKELYFYH"}, "B3": {"name": "wild-type caspase-6: wild-type human caspase-6 (SEQ ID NO:21) (protein)", "chain": "MSSASGLRRGHPAGGEENMTETDAFYKREMFDPAEKYKMDHRRRGIALIFNHERFFWHLTLPERRGTCADRDNLTRRFSDLGFEVKCFNDLKAEELLLKIHEVSTVSHADADCFVCVFLSHGEGNHIYAYDAKIEIQTLTGLFKGDKCHSLVGKPKIFIIQACRGNQHDVPVIPLDVVDNQTEKLDTNITEVDAASVYTLPAGADFLMCYSVAEGYYSHRETVNGSWYIQDLCEMLGKYGSSLEFTELLTLVNRKVSQRRVDFCKDPSAIGKKQVPCFASMLTKKLHFFPKSN"}, "B4": {"name": "Noncleavable Rev-caspase-3: rev-caspase-3 with DEVD site removed and Asp9 and 28 mutated (SEQ ID NO:35) (protein)", "chain": "MIETDSGVDDDMACHKIPVEADFLYAYSTAPGYYSWRNSKDGSWFIQSLCAMLKQYADKLEFMHILTRVNRKVATEFESFSFDATFHAKKQIPCIVSMLTKELYFYHGSPMENTENSVASKSIKNLEPKIIHGSESMASGISLDNSYKMDYPEMGLCIIINNKNFHKSTGMTSRSGTDVDAANLRETFRNLKYEVRNKNDLTREEIVELMRDVSKEDHSKRSSFVCVLLSHGEEGIIFGTNGPVDLKKITNFFRGDRCRSLTGKPKLFIIQACRGTELDCGIETD", "modifications": "OTHER INFORMATION: Uncleavable Rev-Caspase-3 co ntructed from human caspase -3"}}, "key": {"rev-caspase-6": {"molecular_target": "T1, rev-caspase-6 (Homo sapiens, UniProt P55212)", "T1 sequence (P55212 with tags, fused parts or gaps)": "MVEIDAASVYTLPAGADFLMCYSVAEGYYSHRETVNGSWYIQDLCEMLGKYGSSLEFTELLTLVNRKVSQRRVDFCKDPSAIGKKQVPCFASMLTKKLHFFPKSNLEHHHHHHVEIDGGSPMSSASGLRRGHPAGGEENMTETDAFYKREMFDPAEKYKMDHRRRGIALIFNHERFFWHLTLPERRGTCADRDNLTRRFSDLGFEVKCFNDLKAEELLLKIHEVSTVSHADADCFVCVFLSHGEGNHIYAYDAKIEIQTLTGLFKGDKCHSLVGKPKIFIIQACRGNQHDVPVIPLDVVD", "test": "Autocatalytic processing of in vitro translated rev-caspase-6 (SDS-PAGE/autoradiography)", "format": "biochemical", "parameters": "T7-tag (15 residues) (N); made in house; host or cells: in vitro translation in rabbit reticulocyte lysate (TNT Kit, Promega)", "details": "at the concentration used (zVAD-fmk 0-5 μM); p35 data not shown", "method": "(§1) FIGS. 2B and C are scanned images of autoradiograms representing SDS-PAGE analysis of the autoprocessing of rev-caspase-3 and -6, respectively in the presence of varying levels of selected caspase inhibitors. Rev-caspase-3 (FIG. 2B) or rev-caspase-6 (FIG. 2C) were in vitro translated in the presence of increasing concentrations of DEVD-CHO […]; (SEQ ID NO:52), or zVAD-fmk (0-5 μM). The translation products were then analyzed as in FIG. 2A. WT, wild-type.\n(§2) ^35S-labeled caspases (wild-type and rev-caspases) were obtained by in vitro translation in the presence of ^35S-methionine using a coupled transcription/translation system in rabbit reticulocyte lysate using TNT Kit (Promega) according to the manufacturer's recommendations.\n(§3) To test the effect of selected caspase inhibitors on the autocatalytic activity of rev-caspase-3 and 6, the rev-caspases were translated as in Example 3, but in the presence of varying amounts of inhibitors."}, "rev-caspase-3": {"molecular_target": "T2, rev-caspase-3 (Homo sapiens, UniProt P42574)", "T2 sequence (P42574 with tags, fused parts or gaps)": "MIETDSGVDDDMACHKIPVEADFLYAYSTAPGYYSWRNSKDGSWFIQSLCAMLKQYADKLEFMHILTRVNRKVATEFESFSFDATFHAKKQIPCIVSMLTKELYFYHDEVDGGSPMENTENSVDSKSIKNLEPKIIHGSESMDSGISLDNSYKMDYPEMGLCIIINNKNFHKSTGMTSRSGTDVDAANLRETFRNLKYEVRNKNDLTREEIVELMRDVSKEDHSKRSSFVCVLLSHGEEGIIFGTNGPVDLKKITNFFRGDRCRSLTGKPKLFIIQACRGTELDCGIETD", "test": "Autocatalytic processing of in vitro translated rev-caspase-3 (SDS-PAGE/autoradiography)", "format": "biochemical", "parameters": "T7-tag (15 residues) (N); made in house; host or cells: in vitro translation in rabbit reticulocyte lysate (TNT Kit, Promega)", "method": "as §1, §2, §3"}, "MCF-7 cells": {"system": "MCF-7 cells", "test": "Induction of apoptosis in transfected MCF-7 cells (round blue apoptotic cells)", "format": "cell-based, human", "method": "FIGS. 4A and B are bar diagrams representing the ability of rev-caspase-3 and -6 to induce apoptosis in MCF-7 cells. MCF-7 cells were transiently transfected with either rev-caspase-3 (FIG. 4A), or rev-caspase-6 (FIG. 4B) expression constructs in combination with 4-fold of CrmA, p35 or Bcl-2 expression constructs, or 20 μM zVAD-fmk. Cells transfected with an empty vector or the wild-type caspase-3 or -6 were used as controls.\nTo express the rev-caspases in mammalian cells and assay their apoptotic activity, they were amplified with the T7-tag primer and the LS-reverse primers using the pET28a constructs as templates, and subcloned into the mammalian double expression vector pRSC-LacZ (MacFarlane et al., J. Biol. Chem., 272: 25417-25420, 1997; Tsang et al., Bio/Technology, 22: 68, 1997). This vector allows the expression of lacZ under the Rous Sarcoma virus promoter, and the test cDNA under the CMV promoter. To assay for apoptosis, MCF-7 or 293 cells were transfected, using the method commercially available as the Lipofect Amine method (Life Technologies, Inc.), with the pRSC-LacZ constructs in the presence or absence of different apoptosis-inhibitors. 30 h after transfection cells were stained with β-galactosidase and examined for morphological signs of apoptosis. The percentage of round blue apoptotic cells (mean±SD) were represented as a function of total blue cells under each condition (n≧3).\nTo determine the apoptotic activity of rev-caspase-3 and 6 in vivo, the rev-caspases were expressed in human MCF-7 cells, transfected as explained above in Example 2."}, "human PARP": {"system": "human PARP", "test": "Cleavage of PARP by bacterially expressed caspases (Western blot)", "format": "biochemical", "details": "BL-21 bacterial extracts, 2 h at 37° C.", "method": "(§4) FIGS. 3A and B are scanned images representing the SDS-PAGE analysis of the ability of rev-caspase-3 (imaged by western blot) and -6 (imaged by autoradiogram) to cleave PARP and lamin, respectively. In FIG. 3A purified human PARP was incubated with buffer (lane 1) or BL-21 bacterial extracts prepared from bacteria transformed with caspase-3 (lane 2), rev-caspase-3 (lane 3), caspase-6 (lane 4), rev-caspase-6 (lane 5) constructs or empty pET28a vector (lane 6) for 2 h at 37° C. The reaction products were then analyzed by SDS-PAGE and Western blotting with anti-human PARP antibody. In FIG. 3B a cDNA encoding the C-terminus of lamin A (amino acids) which contain the caspase-6 cleavage site (VEIDA); (SEQ ID NO:116), was amplified by PCR and in vitro translated in the presence of ^35S-methionine. The labeled product was incubated with buffer (lane 1) or the BL-21 bacterial extracts listed above for 2 h at 37° C., and then analyzed by SDS-PAGE and autoradiography. The cleavage products are indicated to the right.\n(§5) At limited caspase concentrations, poly(ADP) ribose polymerase (PARP) is specifically cleaved by caspase-3 and 7 but not other caspases. Similarly, lamin is specifically cleaved by caspase-6 but not other caspases. […]"}, "lamin A": {"system": "lamin A", "test": "Cleavage of in vitro translated lamin A C-terminus by bacterially expressed caspases", "format": "biochemical", "details": "BL-21 bacterial extracts, 2 h at 37° C.", "method": "as §4, §5"}, "[1]": {"molecular_target": "T3, uncleavable rev-caspase-3 (Homo sapiens, UniProt P42574, D28A/D9A)", "T3 construct": "uncleavable rev-caspase-3 (B); made in house; host or cells: in vitro translation in rabbit reticulocyte lysate (TNT Kit, Promega)", "T3 sequence (P42574 with tags, fused parts or gaps D9A/D28A)": "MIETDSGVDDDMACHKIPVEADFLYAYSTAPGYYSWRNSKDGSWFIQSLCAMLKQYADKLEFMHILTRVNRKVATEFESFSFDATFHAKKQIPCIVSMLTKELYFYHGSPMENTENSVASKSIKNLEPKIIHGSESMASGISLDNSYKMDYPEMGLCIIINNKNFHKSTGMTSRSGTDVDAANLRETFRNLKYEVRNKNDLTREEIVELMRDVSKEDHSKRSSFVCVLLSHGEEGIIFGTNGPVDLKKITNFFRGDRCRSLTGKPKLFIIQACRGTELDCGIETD", "test": "In vitro translation of uncleavable rev-caspase-3: His6-T7-tag processing", "format": "biochemical", "from_the_text": "FIG. 5A is a scanned image of an autoradiogram representing SDS-PAGE analysis of the enzymatic activity of uncleavable rev-caspase-3. Uncleavable rev-caspase-3 was in vitro translated in the absence or the presence of increasing concentrations of DEVD-CHO (SEQ ID NO:52),. The translation product contains a cleavable 35 residues-long His6-T7-tag at its N-terminus. The active site mutant rev-caspase-3 (Rev C/A) was used as a control. The p32 cleavage product without the His6-T7-tag is indicated to the right.\n^35S-labeled caspases (wild-type and rev-caspases) were obtained by in vitro translation in the presence of ^35S-methionine using a coupled transcription/translation system in rabbit reticulocyte lysate using TNT Kit (Promega) according to the manufacturer's recommendations. […] Because the in vitro translated products are present at very low concentration in the reaction mixture, the observed cleavage must be attributed to an intramolecular processing within the caspase heterotetramer.\nHowever, to follow the activity of this molecule a cleavable 35 residue long His6-T7-tag N-terminal to the IETD (SEQ ID NO:53) site was introduced (see FIG. 1B). […] Nevertheless, the translated molecule was active as evident from its ability to cleave its T7-tag to form the p32 species (FIG. 5). In the presence of 400 nM DEVD-CHO (SEQ ID NO:52), processing of the T7-tag was inhibited and only the full length p34 species can be seen. […] Thus by mimicking the mature caspase structure, it is possible to design a contiguous active caspase molecules."}}, "note": "Peptide text beside a SMILES is read from it. * marks the point of attachment. Cbz = O=C(OCc1ccccc1)*; CH2F = FC*", "data": [{"molecule": "COC(=O)C[C@H](NC(=O)[C@H](C)NC(=O)[C@@H](NC(=O)OCc1ccccc1)C(C)C)C(=O)CF", "note": "[z-VAD-fmk] (Cbz-Val-Ala-Asp(OMe)-CH2F)", "values": [{"measurement": "inhibitory effect on rev-caspase-6 autocatalytic activity compared with rev-caspase-3", "setting": "rev-caspase-6", "result": "nearly an equal inhibitory effect"}, {"measurement": "inhibitory effect on rev-caspase-3 autocatalytic activity compared with rev-caspase-6", "setting": "rev-caspase-3; at the concentration used (zVAD-fmk 0-5 μM), p35 data not shown", "result": "nearly an equal inhibitory effect"}, {"measurement": "amount required relative to DEVD-CHO to obtain complete inhibition of caspase-3 activity", "setting": "rev-caspase-3; in vitro translation of rev-caspase-3", "result": "~10", "unit": "fold"}]}, {"molecule": "B1", "values": [{"measurement": "apoptosis in transfected cells", "setting": "MCF-7 cells; 30 h after transfection", "result": "~90", "unit": "%"}, {"measurement": "cleavage of PARP", "setting": "human PARP", "result": "efficiently cleaved PARP"}, {"measurement": "autocatalytic processing in the in vitro translation reaction (rev-caspase-3 constructs)", "setting": "rev-caspase-3; rabbit reticulocyte lysate, 35S-methionine", "result": "able to undergo autocatalytic processing"}]}, {"molecule": "B2", "values": [{"measurement": "cleavage of PARP", "setting": "human PARP", "result": "efficiently cleaved PARP"}]}, {"molecule": "B3", "values": [{"measurement": "cleavage of lamin", "setting": "lamin A", "result": "efficiently cleaved lamin"}]}, {"molecule": "B4", "values": [{"measurement": "induction of apoptosis on expression in cells", "setting": "MCF-7 cells", "result": "potently induced apoptosis"}, {"measurement": "activity of translated molecule (cleaves its T7-tag to form the p32 species)", "setting": "[1]", "result": "active"}, {"measurement": "cleavage between the two subunits upon in vitro translation", "setting": "[1]", "result": "no evidence of cleavage between the two subunits"}]}]}
